Tests used:
Experiment in all cases: cell-based or functional assay
[1] = molecular target: human MC3R (melanocortin 3 receptor) (human) (UniProt P41968)
[2] = molecular target: human MC5R (melanocortin 5 receptor) (human) (UniProt P33032)
[3] = molecular target: human MC1R (melanocortin 1 receptor) (human) (UniProt Q01726)
[4] = molecular target: human wild type MC4R (melanocortin 4 receptor) expressed on HEK293/HEK293T cells (human) (UniProt P32245)
Sequence of human wild type MC4R (melanocortin 4 receptor) expressed on HEK293/HEK293T cells (human) (P32245 whole entry): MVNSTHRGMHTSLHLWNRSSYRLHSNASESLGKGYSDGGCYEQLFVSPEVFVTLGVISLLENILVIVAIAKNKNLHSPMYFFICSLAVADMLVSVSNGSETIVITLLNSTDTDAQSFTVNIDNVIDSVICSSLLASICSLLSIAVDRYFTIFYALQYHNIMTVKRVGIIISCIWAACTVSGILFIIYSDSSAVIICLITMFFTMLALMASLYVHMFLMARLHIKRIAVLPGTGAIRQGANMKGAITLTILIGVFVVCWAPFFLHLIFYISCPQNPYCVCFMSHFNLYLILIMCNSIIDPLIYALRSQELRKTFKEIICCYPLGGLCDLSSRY

Sequence of human MC1R (melanocortin 1 receptor) (human) (Q01726 whole entry): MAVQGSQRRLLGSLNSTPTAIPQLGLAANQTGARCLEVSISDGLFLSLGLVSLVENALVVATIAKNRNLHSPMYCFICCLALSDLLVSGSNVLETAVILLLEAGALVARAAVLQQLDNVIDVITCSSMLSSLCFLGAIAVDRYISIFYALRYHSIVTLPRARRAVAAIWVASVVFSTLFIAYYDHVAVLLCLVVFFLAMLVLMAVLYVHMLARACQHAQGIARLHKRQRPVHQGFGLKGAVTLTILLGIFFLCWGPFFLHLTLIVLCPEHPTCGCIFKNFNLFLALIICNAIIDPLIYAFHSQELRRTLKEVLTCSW
Sequence of human MC3R (melanocortin 3 receptor) (human) (P41968 whole entry): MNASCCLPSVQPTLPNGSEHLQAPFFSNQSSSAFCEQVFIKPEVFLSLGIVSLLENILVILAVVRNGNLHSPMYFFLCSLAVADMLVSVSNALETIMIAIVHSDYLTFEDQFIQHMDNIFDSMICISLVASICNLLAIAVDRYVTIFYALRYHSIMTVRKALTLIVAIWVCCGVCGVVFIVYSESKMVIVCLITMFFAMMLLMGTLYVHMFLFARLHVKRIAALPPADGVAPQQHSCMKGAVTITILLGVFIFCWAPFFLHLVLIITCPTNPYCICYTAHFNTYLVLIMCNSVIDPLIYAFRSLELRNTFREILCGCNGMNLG
Sequence of human MC5R (melanocortin 5 receptor) (human) (P33032 whole entry): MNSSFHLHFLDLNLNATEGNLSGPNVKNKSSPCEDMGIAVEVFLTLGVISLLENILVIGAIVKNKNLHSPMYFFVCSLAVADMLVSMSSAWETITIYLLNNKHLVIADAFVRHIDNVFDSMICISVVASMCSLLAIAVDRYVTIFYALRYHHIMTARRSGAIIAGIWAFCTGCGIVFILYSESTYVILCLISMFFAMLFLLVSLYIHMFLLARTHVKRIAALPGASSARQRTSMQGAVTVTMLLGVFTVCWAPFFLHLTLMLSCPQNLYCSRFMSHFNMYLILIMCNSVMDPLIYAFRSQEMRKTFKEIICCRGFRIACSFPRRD

setmelanotide (peptide)
in vitro cAMP potency EC50 (GloSensor) [1]: 2.1 nM
in vitro cAMP potency EC50 (GloSensor) [2]: 451 nM
in vitro cAMP potency EC50 (GloSensor) [3]: 11.5 nM
Gs ConfoSensor, 1 mM Ca^2+, EC50 [4]: 0.6 nM
Gs ConfoSensor, No Ca^2+, EC50 [4]: 12 nM
in vitro cAMP potency EC50 (GloSensor) [4]: 2 nM
β-arrestin recruitment, 1 mM Ca^2+, EC50 [4]: 1.3 nM
β-arrestin recruitment, No Ca^2+, EC50 [4]: 18 nM
